{
  "source": "the DeepSol protein solubility set",
  "data": [
    {"assay": "soluble on expression in E. coli; label from the status in PepcDB or PDB records", "values": [
      {"sequence": "MSDQIIARVSQSLAKEQSLESLVRQLLEMLEMVTDMESTYLTKVDVEARLQHIMFARNSQKMYIPENFTVSWDYSLCKRAIDENCFFSDEVPDRWGDCIAARNLGITTFLSTPIHLPDGSFYGTLCAASSEKRQWSERAEQVLQLFAGLIAQYIQKEALVEQLREANAALIAQSYTDSLTGLPNRRAIFENLTTLFSLARHLNHKIMIAFIDLDNFKLINDRFGHNSGDLFLIQVGERLNTLQQNGEVIGRLGGDEFLVVSLNNENADISSLRERIQQQIRGEYHLGDVDLYYPGASLGIVEVDPETTDADSALHAADIAMYQEKKHKQKTPFVAHPALHS", "soluble on expression in E. coli": "soluble"},
      {"sequence": "MSDSNTSSLPRAAQLEPDAAPAVAVLQQALQWQVIFWSGEATDRDRMRWQSWLAADPAHARAWAQVQRTDEQLQTLASPAAEVLRSADARRCKARRTVLGMAGLLAGAGIMGCGLRQTAQWQMMMADDHTGYGERRNIELADGTQVTLGSATAIDVCYSAQARQLLLRTGEIFIVTAPDSADRPFLVQTTRGSVQALGTRFNVRESGEQIQVAVQDGAVAIRPAGMNPGDVVRLDAGQQTCFDHTKVEAAEALQISATAWTRGLLVAERMRLEDFLVELGRYRSGVLRCDPAVRDLIVSGVYSLDDTDQSLRLLAQALPVQVQTVTRWWTIVGPRPMK", "soluble on expression in E. coli": "not soluble"},
      {"sequence": "MSDSPIGSSQQVEPEHRTPDLMDIDPLIANLKALHEETRSDDDDDGQPSTSAKRKDSRADGIVIHQKKYSDPGRFLWIWLLGVRVPALSIDGEPHLPIEILDDMLTKKDKKDQMSFQNLLRYKNVYIRMASPSQFRAVMEKSKECENLNITSLSLMSRSDIERIMGELRLESMLTLAEHDNWDISDRVHVVHVNFIDYCSEWLESDDLEEDVMQSGTHGYWYKNRRNMRCIECQHCEGKFTPTDFIMHHHYPIKPSGFVHTGCNSFQWIRLIEVFDKSNENLEAWNKFVLNSHRAGKREYDEAAPHQAPPKRPAMETPVPVAADNGWEADEEEEGEEIVDRDADIEKCKLRNKKKMENLHIADFLGPSGSKGLKPRNKFEAVIIEQLNKMDDAALEALFLKSPEEYNLWVKESDFTHKVVTQQQEWKAKMKDPNFKSRASANFDVSKGEFDNMRHFDNASKATRQEIQQLAEQFANLDRDAKLLTPMEFVLREHALLKNVSADAIRVLCNRPPLPPLPPPPPPPKPKPAPVQPISLGNINFVALAQQLIASGIKLPLPIVTPPVVSTPAPVITPIPAALPISPNSDFLKQQLSTAMSSPALLSLYPKLTAGAYEQLAQFIKTTTVKN", "soluble on expression in E. coli": "not soluble"},
      {"sequence": "MSDTPSTSSVFLPTWPTRRTDANLYPNGSTKSDELVLHDYGLEEIPMRYHIEQPEEDYDPQNVKKLDLTHNSFVILRGLTTFNNVSVLDVSFNSLSALPEDIGTLSSLTTLIARNNLLEHLPKGLQLLENLEHLYLSGNRLEYVPPVILTMRKLKTLHLGGNYIDSCPSNISVLTLLRVLYLGGNRLREIPASIGCLDELENLGLCDNILETIPSTLGDLHYLETLSLHNNRLRTLPTDILNLRRLQQLSLRNNPLVHSFVHNMDLAPPSLKELSGRTVRQNYHKVPNLDEILPSDLVAYLGSACQCVNPECQGVYFDARVEHIKFVDFCGKYRVPLMQFLCSPRCSAGVPSVDYDTSSESEEEIEPIMRRVLLG", "soluble on expression in E. coli": "not soluble"},
      {"sequence": "MSDTVEELVQRAKLAEQAERYDDMAAAMKKVTEQGQELSNEERNLLSVAYKNVVGARRSSWRVISSIEQKTEGSEKKQQLAKEYRVKVEQELNDICQDVLKLLDEFLIVKAGAAESKVFYLKMKGDYYRYLAEVASEDRAAVVEKSQKAYQEALDIAKDKMQPTHPIRLGLALNFSVFYYEILNTPEHACQLAKQAFDDAIAELDTLNEDSYKDSTLIMQLLRDNLTLWTSDVGAEDQEQEGNQEAGN", "soluble on expression in E. coli": "soluble"},
      {"sequence": "MSDVTNTWNERYDTEEFVYGREPNAFLAGVSAMMPPGDVLCLAEGEGRNAVFLARQGHRVLAVDASAVGLSKAARLAEEHGVRIETLTTDLADLVIEPGRWDAIVSIFCHVPPPVRRVLHRQAVAGLRPGGLFVLEAYTPAQLELRTGGPPTVELLMTLADLREELAGLEFLQAREIERDVVEGRLHTGRGAVVQIVARKPLEHHHHHH", "soluble on expression in E. coli": "soluble"},
      {"sequence": "MSEAESCEETSKEHRIWKKNVPYLYDTVVTKEVEWPSLSVQWMPDVTKTENSDSSMHRMIHGTHTCGGVQNHLMISKFTITTDTPEFDDAKWDSEREEFGGYGEGSAAKWDTEIKINHPGEVHRARYMPHNPFIIASRGPSDDVYIFDYTKHPSEPKDTKFRPQLRLKGHEGEGYGMSWSNTREGHLLTAGDDGMICHWDINANQTISGQIVPQSKFKGHSSNAEDVSFHALHNFVFGSVGDDRKLNLWDLRQSKPQLTAVGHTAEVNCITFNPFSEYILATGSVDKTVALWDMRNMRKKMYTLKHHNDEIFQVSFSPHYETVLASSGSDDRVIVWDISKIQDPSSSSAASSDSVPPEVIFIHAGHTGKVADFSWNPNRPWTICSSDEFNALQVWEVSNSLVSSEKWETEMI", "soluble on expression in E. coli": "not soluble"},
      {"sequence": "MSEAEYFSHFISNGNGKLLEIPQRRGRQDGVFIDWLSFTLHEDSLLKVSGCPLVSDAEYMFVLSKKLEEILGFGITSRCKSKGNKFYDSMFRLGSEEVDYGEVHYGGQRNTVLIELKGVGCNIANPGWELRLKQFLEDSLRPRITRVDLALDFFDGEYTPEQALLDHDNGFFDNSNMRPKSEMVGTAWRREDGSGKTFYVGRKKNSRFVRVYEKGRQLGDKESKWVRFEIQFNHGDMEIPLDILINQGSYFSGAFPICQKFKNMPNPERFDYRKKVANLTFQHKLRYAKNAVGKLINFMFDMGFDSDEIVRYLKADLGYPKGLEPEKYSLAGLKESLKFGFIHEQPDVDLEVELEELGIIKFKQSDKFDPDKRLFDPHHDVESERQYQLYLDRMYDLHANQN", "soluble on expression in E. coli": "not soluble"},
      {"sequence": "MSEEIKPSAPDAPTASPIVTRDEQNLVVSFLQFIRQKVSQNQATAEQAEALEVAIQCLEHSFGLDDASYAFQPSRPILELFKSAEGLPEGESALPTPSDSDISQANKLKEEGNDLMKASQFEAAVQKYNAAIKLNRDPVYFCNRAAAYCRLEQYDLAIQDCRTALALDPSYSKAWGRMGLAYSCQNRYEHAAEAYKKALELEPNQESYKNNLKIAEDKLKELESSRPAPGANPLAGLLGAMGGGPGGMPAMPGMPNMQNLMNEPGLMQAASQMMSDPALSDMFNNMMSGNGSIADLMAAGQQMAARMQETNPELIENLRRQFGPGADGGAPPPNPPQ", "soluble on expression in E. coli": "not soluble"},
      {"sequence": "MSEEISLSAEFIDRVKASVKPHWGKLGWVTYKRTYARWLPEKGRSENWDETVKRVVEGNINLDPRLQDSPSLELKQSLTEEAERLYKLIYGLGATPSGRNLWISGTDYQRRTGDSLNNCWFVAIRPQKYGDSKIVPSYLGKQEKAVSMPFSFLFDELMKGGGVGFSVARSNISQIPRVDFAIDLQLVVDETSESYDASVKVGAVGKNELVQDADSIYYRLPDTREGWVLANALLIDLHFAQTNPDRKQKLILDLSDIRPYGAEIHGFGGTASGPMPLISMLLDVNEVLNNKAGGRLTAVDAADICNLIGKAVVAGNVRRSAELALGSNDDQDFISMKQDQEKLMHHRWASNNSVAVDSAFSGYQPIAAGIRENGEPGIVNLDLSKNYGRIVDGYQAGIDGDVEGTNPCGEISLANGEPCNLFEVFPLIAEEQGWDLQEVFALAARYAKRVTFSPYDWEISREIIQKNRRIGISMSGIQDWLLTRLGNRVVTGFKDDFDPETHEAIKVPVYDKRAIKMVDQLYKAVVKADQDYSKTLGCNESIKHTTVKPSGTVAKLAGASEGMHFHYGAYLIQRIRFQDSDPLLPALKACGYRTEADIYTENTTCVEFPIKAVGADNPNFASAGTVSIAEQFATQAFLQTYWSDNAVSCTITFQDSEGDQVESLLRQYRFITKSTSLLPYFGGSLQQAPKEPIDKETYEKRSQEITGNVEEVFSQLNSDVKDLELVDQTDCEGGACPIK", "soluble on expression in E. coli": "soluble"},
      {"sequence": "MSEFKSKLESETLDFLCDAILTLENREECYRFFDDIFTINEIKTIEQRLQVAKMLKEKHTYSDISAETGASTATISRVNRCINYGSDGYNIVLRRLEK", "soluble on expression in E. coli": "not soluble"},
      {"sequence": "MSEKDFVQVAKLGKTVGLKGYVKLHNLSDFSSQFKKDATFFIKNTKEMLKIKHYNANNSTVLFENYEDIEKAKELTNLILFQSIEKSRQTCKLKKDEFFYFDILECEVFEEDKRLGKVVDILETGASYLFEIQSDEKWVEKKYPKIFFIPYLDKFVKNIDIEKRQIFCTQDAFLILENSLEHHHHHH", "soluble on expression in E. coli": "soluble"}
    ]}
  ]
}
